Measurements published in paper PMC4264339 (Virology Journal, 2014).

Experiments:
[1] = biological target: HA protein on FJ13 virus (A/duck/Fujian/13/2002, H5N1), virus particles (Influenza A virus A/duck/Fujian/13/2002 …, UniProt Q9Q0U6, strain); assay: ELISA; conditions: one partner purified
[2] = biological target: HA protein of FJ13 virus in infected MDCK cells (Influenza A virus A/duck/Fujian/13/2002 …, UniProt Q9Q0U6, strain); assay: immunostaining of cells or tissue; conditions: partners not purified

B1: scFv3 secreted from DF-1 cells, c-Myc tagged (scFv, V domains shown)
VH: AVTLDESGGGLQTPGGALSLVCKASGFTFSSYDMYWVRQAPGKGLEFVAIINSGGSTSYYASAVKGRATISRDNGQSTVRLQLNNLRADDTGTYYCAKGPSAIDAWGHGTEVIVSS
VL: ALTQPSSVSANPGETVKITCSGGSSTYGYSWHQQKSPGSAPVTVVYSNDERPSDIPSRFSGSKSGSTGTLTITGVQADDEAIYYCGTYGSTDSGYVGIFGARTTLTVL
[1]
  binding result: binds
[2]
  binding result: binds
